This assay concerns the target T1, MPT32蛋白 in protein extracts of clinical samples of tuberculosis patients (结核分枝杆菌 (Mycobacterium tuberculosis), UniProt P9WIR7 40-325).
T1 construct: Native antigen detected by western blot in patient samples; also called 结核分枝杆菌MPT32蛋白; 抗原蛋白
T1 sequence (looked up): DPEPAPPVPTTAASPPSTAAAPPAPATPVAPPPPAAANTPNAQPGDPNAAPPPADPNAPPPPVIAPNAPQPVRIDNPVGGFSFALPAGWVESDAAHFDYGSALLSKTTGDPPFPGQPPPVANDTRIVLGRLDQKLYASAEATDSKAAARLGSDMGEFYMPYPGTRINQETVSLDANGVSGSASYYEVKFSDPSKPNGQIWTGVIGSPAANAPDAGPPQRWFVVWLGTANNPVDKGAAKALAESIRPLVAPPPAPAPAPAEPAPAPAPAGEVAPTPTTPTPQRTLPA
The assay is described as follows: western blot of protein extracts of clinical samples. In general terms: Immunoblotting shows a protein as a band on a membrane.

B1: 鼠抗MPT32蛋白单克隆抗体 (secreted by hybridoma cell line 13B12, CCTCC NO:C2021305) (antibody, V domains shown)
VH: QVQLQQSGAELVKPGASVKMSCKASGFTFTSYWINWVKQRPGQGLEWIGDLYPGRGITNYNEKFKPKATLTLDTSSSTAYMQLSSLTSEDSAVYYCSTGPYWGQGTILTVSS
VL: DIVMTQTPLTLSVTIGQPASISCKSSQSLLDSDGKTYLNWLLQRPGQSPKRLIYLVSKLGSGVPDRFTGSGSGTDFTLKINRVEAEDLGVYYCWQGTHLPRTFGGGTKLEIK
notes: also called 鼠抗MPT32单克隆抗体; MPT32蛋白抗体
On to B1, for which the binding result is listed as “binds”.

For the origin of these results see patent publication CN114591427A (SHENZHEN LIGHT AND BIOTECHNOLOGY CO LTD; GUANGDONG PEOPLES …, dated 2022).
